Laboratory results as given in patent US7078491 (Amgen, dated 2006).

Molecular target: T1, flag-tagged hTERT protein from transfected 293T cells (human, UniProt O14746 1-1132)
T1 construct: also called hTERT from 293T cells; 293T lysate
Assay: immunoprecipitation from 293T lysate, Western blot with peptide polyclonal antibody
Method: Immunoprecipitation experiments were also carried out to verify the specificity of the 4A5 and 4B5 monoclonal antibodies. Protein G Sepharose beads (Pharmacia) were incubated with anti-mouse IgG (Amersham Biotech) in CHAPS buffer (0.5% CHAPS, 10 mM TRIS, 1 mM NaCl, 10% glycerol, 1 mM DTT, RNase inhibitor, Complete Protease Inhibitor; Boehringer Mannheim) at room temperature for 1 to 4 hours. The beads were washed and then incubated again at room temperature for 1 to 4 hours with 2 µg of one of the following antibodies: anti-GST, peptide polyclonal antibody, RT polyclonal antibody, 4A5 monoclonal antibody, 4B5 monoclonal antibody. For the negative control 4G6 antibody, the beads were incubated with 4G6 antibody in CHAPS buffer.
Following the incubation, the beads were washed with the aforementioned buffer and then incubated in the aforementioned buffer containing either 50 µl of hTERT-s200 generated by the TNT reaction on rabbit reticulocyte (see upper panels in FIG. 2) or 100 µl of 293T lysate (see lower panel in FIG. 2) for 1 to 4 hours at 4° C. The beads were washed again in the aforementioned buffer, the excess buffer removed form the beads and suspended in 4× SDS loading dye (see Sambrook et al, supra.). […] Western blotting was carried out as described above and probed with 0.28 µg/ml of peptide polyclonal hTERT antibody and binding was detected with the ECL method. […]

T1 sequence (O14746 whole entry): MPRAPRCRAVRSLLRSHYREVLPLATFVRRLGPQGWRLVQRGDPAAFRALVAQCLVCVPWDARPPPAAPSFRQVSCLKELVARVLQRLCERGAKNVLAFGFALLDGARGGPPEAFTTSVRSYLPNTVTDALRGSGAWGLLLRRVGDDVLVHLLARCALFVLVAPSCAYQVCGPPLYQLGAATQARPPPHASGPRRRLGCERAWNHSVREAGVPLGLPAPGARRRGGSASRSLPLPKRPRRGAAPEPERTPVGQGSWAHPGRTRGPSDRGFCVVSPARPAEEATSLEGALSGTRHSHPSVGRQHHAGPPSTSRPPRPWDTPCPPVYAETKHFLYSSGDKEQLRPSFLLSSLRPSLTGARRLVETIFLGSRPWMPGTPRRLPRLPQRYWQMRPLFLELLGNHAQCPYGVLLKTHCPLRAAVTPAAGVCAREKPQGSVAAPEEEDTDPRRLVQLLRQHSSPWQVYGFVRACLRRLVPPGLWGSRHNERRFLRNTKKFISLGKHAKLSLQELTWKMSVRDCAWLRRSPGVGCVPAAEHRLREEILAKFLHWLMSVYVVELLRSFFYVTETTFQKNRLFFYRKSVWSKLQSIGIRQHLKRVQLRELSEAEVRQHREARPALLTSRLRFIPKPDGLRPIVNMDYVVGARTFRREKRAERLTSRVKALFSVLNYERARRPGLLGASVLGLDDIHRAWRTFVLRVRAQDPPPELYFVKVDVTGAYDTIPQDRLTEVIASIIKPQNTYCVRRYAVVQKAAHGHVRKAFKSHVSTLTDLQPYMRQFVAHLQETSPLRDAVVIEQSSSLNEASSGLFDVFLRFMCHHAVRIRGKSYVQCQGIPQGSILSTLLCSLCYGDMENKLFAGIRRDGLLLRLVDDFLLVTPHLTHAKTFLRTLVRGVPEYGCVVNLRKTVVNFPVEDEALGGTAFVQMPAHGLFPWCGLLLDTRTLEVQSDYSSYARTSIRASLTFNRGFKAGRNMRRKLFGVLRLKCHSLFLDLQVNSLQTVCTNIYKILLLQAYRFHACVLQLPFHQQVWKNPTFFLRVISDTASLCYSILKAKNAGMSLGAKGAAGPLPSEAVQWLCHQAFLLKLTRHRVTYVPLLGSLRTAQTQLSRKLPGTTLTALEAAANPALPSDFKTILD

- binding result: binds
B1: 4A5 monoclonal antibody (hybridoma 4A5, ATCC PTA-2412) (antibody, V domains shown)
VH: EVKLVESGGGLVKPGGSLKLSCAASGFTFSSYAMSWVRQTPEKRLEWVASISSGGNTYYPDNVQGRFTISRDNARNILYLQMSSLRSEDTAMFYCAREGVYDTYGGVDYWGQGTTLTVSS
VL: DIVLTQSPTSLAVSLGQRATISCKASQSVDYDGDSFINWYQQTPGQPPKLLIYAASNLASGIPARFSGSGSGTDFTLNIHPVEEEDAATYYCQQSNEAPPTFGGGTKLEI
notes: Mouse monoclonal from hybridoma, characterized as IgG2B type, kappa light chain primers used; also called 4A5 mAb; 45A
